Source: article PMC4068353, “Characterization of 14-3-3-ζ Interactions with Integrin Tails” (Journal of Molecular Biology, 2013)
“And” between values parts separate entries of the source, which are not always exact repeats. Equal values may be shown once. “Also recorded” adds a separate entry of the source. Non-standard residues stand in square brackets, D forms with d. Residues, ends and D or L forms follow the SMILES beside them. No end group written: not given here. fluorescein‑5‑maleimide = fluorescein-5-maleimide linked to an engineered C-terminal Cys; pT = C[C@@H](OP(=O)(O)O)[C@H](N)C(=O)O; pS = N[C@@H](COP(=O)(O)O)C(=O)O

Experiments:
14-3-3-ζ [1] = target: T1, 14-3-3-ζ (Homo sapiens, UniProt P63104); assay: ITC of integrin tail fragments with 14-3-3-ζ; assay type: binding; conditions: 298 K; for Kd: 20 mM sodium phosphate, 50 mM NaCl pH 6.5, integrin fragment in cell (80–200 μM), 14-3-3-ζ in syringe (0.75–2 mM), one-site model, repeated twice; for binding to 14-3-3-ζ by ITC, in words: pH 6.5, fragment in cell, 14-3-3-ζ in syringe
T1 construct: His10 (cleaved yes); made in house
T1 sequence (P63104 1-245): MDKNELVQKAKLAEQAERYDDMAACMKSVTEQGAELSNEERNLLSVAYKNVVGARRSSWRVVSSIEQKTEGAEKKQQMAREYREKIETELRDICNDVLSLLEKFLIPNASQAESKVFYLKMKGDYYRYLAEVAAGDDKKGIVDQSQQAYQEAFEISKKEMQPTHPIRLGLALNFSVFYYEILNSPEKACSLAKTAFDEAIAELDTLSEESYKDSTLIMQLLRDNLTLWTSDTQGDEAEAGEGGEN
Experimental: Phosphorylated α4 synthetic peptides were purchased from GL Biochem Ltd. (Shanghai). All recombinant proteins and synthetic peptides were prepared in 20 mM sodium phosphate and 50 mM NaCl (pH 6.5), and concentrations were determined by UV absorbance at 280 nm. ITC experiments using a VP-ITC200 instrument (MicroCal) were performed at 298 K as follows: the cell (volume, ~ 200 μl) contained the different integrin tail fragments, and the syringe (volume, ~ 40 μl) contained 14-3-3-ζ. A first injection of 2 μl was followed by 15 injections of 2.5 μl, with a stirring speed of 1500 rpm and a delay between injections of 180 s. A blank titration was performed by injecting 14-3-3-ζ into buffer to take the heat of dilution into account. Experiments were repeated twice for each sample. Raw data were processed and fitted with MicroCal Origin software using a one-site model where the error function is calculated as the sum of the squared deviations between the data and the model curve.

14-3-3-ζ [2] = target: T1, 14-3-3-ζ; assay: 15N-1H HSQC NMR titration of 15N-labeled integrin tails with unlabeled 14-3-3-ζ; assay type: binding; conditions: 15N-labeled tail 0.1 mM, equimolar unlabeled 14-3-3-ζ; NMR buffer pH 6.5, 25 °C
Experimental: Samples were prepared in NMR buffer (pH 6.5) with 5% D2O, and experiments were performed at 25 °C. Titration experiments were collected on a 500-MHz spectrometer using a water flip-back-embedded gradient enhanced ^15N–^1H HSQC pulse sequence.[46] For the assignment of the α4 and β2 backbone resonances, ^15N–^13C integrin tails of 0.6 mM concentration were used to measure CBCA(CO)NH and CBCANH experiments on a Bruker 500-MHz instrument equipped with a cryogenic probe head. Data were processed using NMRPipe[47] and analyzed with the programs CARA/XEASY[48] or CCPN Analysis.[49]

14-3-3-ζ [3] = target: T1, 14-3-3-ζ; assay: Fluorescence polarization titration of fluorescein-labeled integrin tails with 14-3-3-ζ; assay type: binding; conditions: fluorescein-labeled tail, 1 μM; ex 485 nm, em 520 nm
Experimental: Fig. 6 Fluorescence polarization and ITC of interactions between integrin tails and 14-3-3-ζ. (a) Fluorescence polarization titrations of fluorescein-labeled β1A, β3 and α4 with 14-3-3-ζ. […] (b–d) ITC sensorgram of an in-cell 200 μM β1A, β2 (same as in Fig. 5a) or β3 samples injected with 2 mM 14-3-3-ζ.
For fluorescence polarization experiments, integrin tails were labeled with fluorescein-5-maleimide (Invitrogen) linked to an engineered C-terminal Cys residue. Measurements were performed using 96-well microplates (Corning) in a PHERAstar FS microplate reader (BMG Labtech). Fluorescein-labeled integrin tails at 1 μM concentration were excited at 485 nm, and polarization was recorded at 520 nm.

14-3-3-ζ [4] = target: T2, 14-3-3-ζ (UniProt P63104 1-245); assay: fluorescence polarisation; fluorescein-labeled integrin tails at 1 μM titrated with increasing amounts of 14-3-3-ζ; 96-well plates; excitation 485 nm, emission 520 nm; single-site model; conditions: both partners purified
T2 construct: 14-3-3 protein zeta; Expressed from the same modified pET16b vector as the integrin tails (His10, 3C site); also called 14-3-3-ζ wt; unlabeled 14-3-3-ζ; not shown: His10, N-terminal, cleaved
T2 sequence: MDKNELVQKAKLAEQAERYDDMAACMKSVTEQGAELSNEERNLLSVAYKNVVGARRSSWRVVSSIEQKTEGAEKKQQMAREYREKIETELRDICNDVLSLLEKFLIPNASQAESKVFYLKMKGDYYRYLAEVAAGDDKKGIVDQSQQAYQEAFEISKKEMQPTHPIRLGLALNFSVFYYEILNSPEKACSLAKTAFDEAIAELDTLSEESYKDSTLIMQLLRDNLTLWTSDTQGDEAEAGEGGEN

14-3-3-ζ [5] = target: T2, 14-3-3-ζ; assay: ITC; integrin tail fragment in the cell (80-200 μM), 14-3-3-ζ in the syringe (0.75-2 mM); 298 K; 20 mM sodium phosphate, 50 mM NaCl, pH 6.5; one-site model; conditions: both partners purified
14-3-3-ζ [6] = target: T2, 14-3-3-ζ; assay: NMR titration; 15N-1H HSQC of 15N-labeled integrin tail (0.1 mM) before and after addition of unlabeled 14-3-3-ζ (wt or variant; equimolar, 0.1 mM); 20 mM sodium phosphate, 50 mM NaCl, pH 6.5, 5% D2O, 25 °C; read-out: loss of resonance intensity (I/Io); conditions: both partners purified

CC[C@H](C)[C@H](NC(=O)[C@H](COP(=O)(O)O)NC(=O)[C@H](CCCCN)NC(=O)[C@H](Cc1ccc(O)cc1)NC(=O)[C@H](CCC(N)=O)NC(=O)[C@H](CCCNC(=N)N)NC(=O)[C@H](CCCCN)NC(=O)[C@@H](N)Cc1ccccc1)C(=O)N[C@@H](CC(C)C)C(=O)N[C@@H](CCC(N)=O)C(=O)N[C@@H](CCC(=O)O)C(=O)O [α4-11pS] (H-FKRQYK[pS]ILQE-OH)
Kd (14-3-3-ζ [1]): > 300 µM and 315 µM

CC[C@H](C)[C@H](NC(=O)[C@H](Cc1ccc(O)cc1)NC(=O)[C@H](CO)NC(=O)[C@H](Cc1c[nH]c2ccccc12)NC(=O)[C@H](CO)NC(=O)[C@H](CC(=O)O)NC(=O)[C@H](CCCNC(=N)N)NC(=O)[C@H](CCCNC(=N)N)NC(=O)[C@H](CC(N)=O)NC(=O)[C@H](CCC(=O)O)NC(=O)[C@H](CCC(=O)O)NC(=O)[C@H](CCC(N)=O)NC(=O)[C@H](CC(C)C)NC(=O)[C@@H](NC(=O)[C@H](COP(=O)(O)O)NC(=O)[C@H](CCCCN)NC(=O)[C@H](Cc1ccc(O)cc1)NC(=O)[C@H](CCC(N)=O)NC(=O)[C@H](CCCNC(=N)N)NC(=O)[C@H](CCCCN)NC(=O)[C@H](Cc1ccccc1)NC(=O)[C@H](Cc1ccccc1)NC(=O)CN)[C@@H](C)CC)C(=O)N[C@@H](CC(N)=O)C(=O)N[C@@H](CO)C(=O)N[C@@H](CCCCN)C(=O)N[C@@H](CO)C(=O)N[C@@H](CC(N)=O)C(=O)N[C@@H](CC(=O)O)C(=O)N[C@@H](CC(=O)O)C(=O)O [α4-30pS] (H-GFFKRQYK[pS]ILQEENRRDSWSYINSKSNDD-OH)
Kd (14-3-3-ζ [1]): 23.6 ± 2.1 µM

GPLGSKAGFFKRQYKDILQEENRRDSWSYINSKSNDD [α4 S1011D, recombinant α4 integrin tail phospho-mimetic, S1011D]
change of integrin tail resonances on addition of 14-3-3-ζ, in words (14-3-3-ζ [2]): significant decrease in α4 amide resonance intensities

GS KLLITIHDRKEFAKFEEERARAKWDTANNPLYKEATSTFTNITYRGT [β3 wt, recombinant β3 integrin tail, residues 742–788]
change of integrin tail resonances on addition of 14-3-3-ζ, in words (14-3-3-ζ [2]): intensity reduction for several resonances | binding to 14-3-3-ζ by ITC, in words (14-3-3-ζ [1]): Only β1A gave a binding curve that could be fitted | binding to 14-3-3-ζ by fluorescence polarization, in words (14-3-3-ζ [3]): No binding was detected

GS KLLMIIHDRREFAKFEKEKMNAKWDTQENPIYKSPINNFKNPNYGRKAGL (GSKLLMIIHDRREFAKFEKEKMNAKWDTQENPIYKSPINNFKNPNYGRKAGL; left off: His10, N-terminal, cleaved) [β1D wt, recombinant β1D integrin tail, residues 752–801]
change of integrin tail resonances on addition of 14-3-3-ζ, in words (14-3-3-ζ [2]): interacts with 14-3-3-ζ in a very similar way to β1A

GS RLSVEIYDRREYSRFEKEQQQLNWKQDSNPLYKSAITTTINPRFQEADSPTL (GSRLSVEIYDRREYSRFEKEQQQLNWKQDSNPLYKSAITTTINPRFQEADSPTL; left off: His10, N-terminal, cleaved) [β7 wt, recombinant β7 integrin tail, residues 747–798]
change of integrin tail resonances on addition of 14-3-3-ζ, in words (14-3-3-ζ [2]): intensity reduction for several resonances

GSKALIHLSDLREYRRFEKEKLKSQWNNDNPLFKSATTTVMNPKFAES [β2 wt, recombinant unphosphorylated β2 integrin tail, residues 724–769]
change of integrin tail resonances on addition of 14-3-3-ζ, in words (14-3-3-ζ [2]): selective broadening of β2 resonances | binding to 14-3-3-ζ by ITC, in words (14-3-3-ζ [1]): only a weak interaction; also recorded: the interaction is weak, in the millimolar range | binding to 14-3-3-ζ by ITC, in words (14-3-3-ζ [1]; listed as β2): Only β1A gave a binding curve that could be fitted

KALIHLSDLREYRRFEKEKLKSQWNNDNPLFKSA[pT]TTVMNPKFAES [β2-45pT]
Kd (14-3-3-ζ [1]): 7.9 ± 3.1 µM

YKSAVpTTVVNP [β1-11pT, synthetic β1 phospho-threonine peptide, residues 783–793]
binding to 14-3-3-ζ by ITC, in words (14-3-3-ζ [1]): no binding

paxillin residues 111–128: phosphorylated peptide containing a putative 14-3-3 binding motif, corresponding to paxillin residues 111–128 (VGEEEHVYSFPNKQKSAE; also: phosphorylated; UniProt P49023 111-128, looked up, fragment)
binding to 14-3-3-ζ by ITC, in words (14-3-3-ζ [1]): no interaction was detected by ITC

paxillin: construct of the N-terminal region of paxillin (residues 1–323) that included all LD motifs
binding to 14-3-3-ζ by ITC, in words (14-3-3-ζ [1]): no pairwise interaction was detected by ITC

GSKLLMIIHDRREFAKFEKEKMNAKWDTGENPIYKSAVTTVVNPKYEGKC(fluorescein‑5‑maleimide) (domain or fragment) [fluorescein-labeled β1A integrin tail]
Kd (14-3-3-ζ [4]): 95 ± 16 µM

B1: β2-11pT phospho-peptide (peptide)
peptide: PLFKSATTTVM
modifications: also: phospho-threonine at 758
notes: integrin β2 cytoplasmic tail, residues 752-762 of UniProt P05107; T758 is phospho-threonine; also called short β2 phospho-peptide; source: synthetic peptide
Kd (14-3-3-ζ [5]): 4 µM

B2: α4-30pS phospho-peptide (peptide)
peptide: GFFKRQYK[pS]ILQEENRRDSWSYINSKSNDD
notes: integrin α4 cytoplasmic tail, residues 1003-1032 of UniProt P13612; S1011 is phospho-serine; also called phosphorylated α4-derived peptide; source: synthetic peptide, bought: GL Biochem Ltd. (Shanghai)
Kd (14-3-3-ζ [5]): ~24 µM

B3: β1A integrin cytoplasmic tail, wild type (domain or fragment, human (from the printed UniProt entry))
chain: GSKLLMIIHDRREFAKFEKEKMNAKWDTGENPIYKSAVTTVVNPKYEGK
notes: residues from the cloning tag at the N-terminus; integrin β1A cytoplasmic tail, residues 752-798 of UniProt P05556; 15N-labelled for NMR, unlabelled for ITC; also called β1A wt; not shown: His10, N-terminal, cleaved
Kd (14-3-3-ζ [5]): 280 ± 40 µM

B4: β2-45pT phospho-peptide (peptide)
peptide: KALIHLSDLREYRRFEKEKLKSQWNNDNPLFKSATTTVMNPKFAES
modifications: also: phospho-threonine at 758
notes: integrin β2 cytoplasmic tail, residues 724-769 of UniProt P05107; T758 is phospho-threonine; also called long β2 phospho-peptide; source: synthetic peptide
Kd (14-3-3-ζ [5]): 8 µM

B5: α4 integrin cytoplasmic tail S1011D (domain or fragment, human (from the printed UniProt entry))
chain: GPLGSKAGFFKRQYKDILQEENRRDSWSYINSKSNDD
notes: residues from the cloning tag at the N-terminus; integrin α4 cytoplasmic tail, residues 1001-1032 of UniProt P13612, with S1011D; 15N-labelled for NMR, unlabelled for ITC; also called α4 S1011D; α4 phospho-mimetic; not shown: His10, N-terminal, cleaved
Kd (14-3-3-ζ [5]): ~60 µM

B6: α4-11pS phospho-peptide (peptide)
peptide: FKRQYK[pS]ILQE
notes: integrin α4 cytoplasmic tail, residues 1005-1015 of UniProt P13612; S1011 is phospho-serine; also called short phosphorylated α4 integrin peptide; source: synthetic peptide, bought: GL Biochem Ltd. (Shanghai)
Kd (14-3-3-ζ [5]): > 300 µM

B7: α4 integrin cytoplasmic tail, wild type (domain or fragment, human (from the printed UniProt entry))
chain: GPLGSKAGFFKRQYKSILQEENRRDSWSYINSKSNDD
notes: residues from the cloning tag at the N-terminus; integrin α4 cytoplasmic tail, residues 1001-1032 of UniProt P13612; 15N-labelled for NMR, unlabelled for ITC; also called α4 wt; full-length α4 integrin tail; not shown: His10, N-terminal, cleaved
binding result (14-3-3-ζ [6]): binds
